We go through 2 sequences from patent US10736933B2, “Peptide-induced NK cell activation” (priority 2015, dated 2020).

For experiment [1], the target named is T1, KIR2DS2 (Homo sapiens, UniProt P43631).
T1 construct: made in house
In words: KIR2DS2 tetramer (KIR2DS2-PE) staining of peptide-loaded L721.174 cells. It counts as binding. The note with it: L721.174 cells incubated overnight at 26° C. with peptide, flow cytometry. Here is the method: A. The KIR2DS2 protein was expressed with a biotinylation C-terminal tag. Following biotinylation with the BirA enzyme, the KIR2DS2 protein was incubated with streptavidin-phycoerythrin to form fluorescent KIR2DS2-tetramers (KIR2DS2-PE). L721.174 cells were then incubated with indicated peptides. Cells were then stained with KIR2DS2-PE and analysed by flow cytometry. Shown are histogram plots. The bold numbers represent the mean fluorescent staining intensity of the KIR2DS2-PE staining of the cells in the presence of peptide and the non-bold numbers the staining in the absence of peptide. B. Represents the mean and standard error fluorescent intensities of the experiment in “A” following replicate experiments.
A. L721.174 cells were incubated with indicated peptides. Cells were then stained with KIR2DS2-PE (see FIG. 4) and analysed by flow cytometry. Shown are histogram plots. The bold numbers represent the mean fluorescent staining intensity of the KIR2DS2-PE staining of the cells in the presence of peptide and the non-bold numbers the staining in the absence of peptide. B. Represents the mean and standard error fluorescent intensities of the experiment in “A” following replicate experiments.
FIG. 13—KIR2DS2 tetramer staining on 174 cells with and without peptides. Peptides tested include IVDLMCHATF (SEQ ID NO: 1); VIDAMCHATL (SEQ ID NO: 2); AANVMAASL (SEQ ID NO: 3); and FLSDVPVATL (SEQ ID NO: 4). A negative control peptide VAPWNSFAL (SEQ ID NO: 12) and positive control peptide LNPSVAATL (SEQ ID NO: 5) were included. The mean fluorescence intensity of the KIR2DS2 tetramer staining is shown in the right hand corner of the graph.
With reference to FIG. 4A, the KIR2DS2 protein was expressed as a recombinant protein with a biotinylation C-terminal tag. Following biotinylation with the BirA enzyme, the KIR2DS2 protein was incubated with streptavidin-phycoerythrin to form fluorescent KIR2DS2-tetramers (KIR2DS2-PE). 3×10^5 L721.174 cells were then incubated overnight at 26° C. with indicated peptides at a concentration of […]. Cells were then stained with KIR2DS2-PE and analysed by flow cytometry. Shown are histogram plots. The bold numbers represent the mean fluorescent staining intensity of the KIR2DS2-PE staining of the cells in the presence of peptide and the non-bold numbers the staining in the absence of peptide. With reference to FIG. 4B, panel B represents the mean and standard error fluorescent intensities of the experiment in “A” following replicate experiments.
With reference to FIG. 5A, 3×10^5 L721.174 cells were incubated overnight at 26° C. with indicated peptides at a concentration of 200 μM. Cells were then stained with KIR2DS2-PE (see FIG. 4) and analysed by flow cytometry. Shown are histogram plots. The bold numbers represent the mean fluorescent staining intensity of the KIR2DS2-PE staining of the cells in the presence of peptide and the non-bold numbers the staining in the absence of peptide. With reference to FIG. 5B, panel B represents the mean and standard error fluorescent intensities of the experiment in “A” following replicate experiments.
With reference to FIG. 13, the KIR2DS2 protein was expressed as a recombinant protein with a biotinylation C-terminal tag. Following biotinylation with the BirA enzyme, the KIR2DS2 protein was incubated with streptavidin-phycoerythrin to form fluorescent KIR2DS2-tetramers (KIR2DS2-PE). […] Cells were then stained with KIR2DS2-PE and analysed by flow cytometry. […]

In experiment [2] the target is HLA-Cw*0102 (Homo sapiens, UniProt P10321, A176E/A330V/A35S/A97T/C350S/D114A/D33F/L171W/L180R/L218V/M285V/M309V/M331V/P208H/Q277E/Q291P/R121W/R243W/R30K/S123C/S140Y/S297R/T329A/T363A/V272M/V319A). In words: Peptide binding to HLA-Cw*0102 on L721.174 cells (cell surface MHC class I, flow cytometry). Type of experiment: cell-based. The note with it: increasing concentrations of peptide, overnight at 26° C. Here is the method: The HLA-Cw*0102-positive cell line L721.174 was incubated with increasing concentrations of the LNPSVAATL (SEQ ID NO: 5) peptide or a control peptide VAPWNSLSL (SEQ ID NO: 11). Cells were stained for cell surface of MHC class I and analysed by flow cytometry. The mean fluorescence intensity of cell surface MHC Class I was plotted against the peptide concentration.
The HLA-Cw*0102 • positive cell line L721.174 was incubated with increasing concentrations of the peptides IVDLMCHATF (SEQ ID NO: 1); VIDAMCHATL (SEQ ID NO: 2); AANVMAASL (SEQ ID NO: 3); and FLSDVPVATL (SEQ ID NO: 4) or a control peptide […]. Cells were stained for cell surface of MHC class I and analysed by flow cytometry. The mean fluorescence intensity of cell surface MHC Class I was plotted against the peptide concentration.
3×10^5 cells were used per condition. Following washing in PBS the cells were stained for cell surface of MHC class I and analysed by flow cytometry. The mean fluorescence intensity of cell surface MHC Class I was plotted against the peptide concentration.
With reference to FIG. 12, the HLA-Cw*0102-positive cell line L721.174 was incubated with increasing concentrations of the peptides IVDLMCHATF (SEQ ID NO: 1), VIDAMCHATL (SEQ ID NO: 2), AANVMAASL (SEQ ID NO: 3); and FLSDVPVATL (SEQ ID NO: 4) overnight at 26° C. 3×10^5 cells were used per condition. Following washing in PBS the cells were stained for cell surface of MHC class I and analysed by flow cytometry. The mean fluorescence intensity of cell surface MHC Class I was plotted against the peptide concentration.
Background: Flow cytometry measures light scatter and fluorescence of single cells or particles in a stream.

T1 sequence (P43631 22-245 limits assumed): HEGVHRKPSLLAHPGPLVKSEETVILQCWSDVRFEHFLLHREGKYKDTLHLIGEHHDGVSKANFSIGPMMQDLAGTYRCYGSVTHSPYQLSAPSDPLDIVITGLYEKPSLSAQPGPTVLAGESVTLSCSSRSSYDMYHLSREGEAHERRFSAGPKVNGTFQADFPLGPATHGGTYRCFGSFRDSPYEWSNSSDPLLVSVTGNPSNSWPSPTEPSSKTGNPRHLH

Regarding IVDLMCHATF [Dengue virus peptide], the “KIR2DS2-PE tetramer binding to HLA-C*0102 and peptide” value in experiment [1] is reported as “KIR2DS2 BINDS”. Moreover, in experiment [2], the “binding to HLA-Cw*0102 (mean fluorescence intensity of cell surface MHC Class I)” value was “bind HLA-Cw*0102”.

As to “LNPSVAATL [peptide recognized by KIR2DS2-positive NK cells]”, the “KIR2DS2-PE tetramer binding to HLA-C*0102 and peptide” value in experiment [1] was “KIR2DS2 binds”. Also, in experiment [2], the “binding to HLA-Cw*0102 (mean fluorescence intensity of cell surface MHC Class I)” value was “binds HLA-Cw*0102”.
